Measured values from patent US20220251174A1 (published 2022).

B1: 23-H7 Fab (Fab, V domains shown)
VH: QVQLVQSGAEVKLPGASMKVSCKASGYTFSTYYMHWVRQAPGQGPEWMGVIDPSGGTTSYAQKFHDRIAMTRDTSTSTAYLELSSLRSEDMAVYYCARGGFADAVDYWGQGTLVTVSS
VL: NFMLTQPHSVSGSPGKTVTISCTRNSGSIAGNYVQWYQQRPGSAPTTVIYEDNQRPSGVPDRFSGSIDSSSNSASLTISGLKTEDEADYYCQSYDASHLHVIFGGGTKVTVL
B2: 22-E7 (full-length human IgG1) (antibody, V domains shown)
VH: QVQLVESGGGVVQPGTSLRLSCAASGFTFNNYPMFWVRQAPGKGLEWLALISYDGNHKVYADSVKGRFTISRDNAKNTLYLQMHSLRAEDTALYYCASDLSGAEDSWGQGTLVTVSS
VL: QSALTQPASVSGSPGQSITISCTGTSSDVGGYNYVSWYQQHPGKAPKLLIYEVSNRPSGVSNRFSGSKSGNTASLTISGLQAEDEADYYCSSYTSSSTWVFGGGTKLTVL

Tests used:
[1] = biological target: SARS-CoV-2 Spike RBD (tagless) (UniProt P0DTC2 319-541); test: BLI
SARS-CoV-2 Spike () = test: BLI

| Binder | IC50 [1] [nM] | Kd (SARS-CoV-2 Spike ()) [nM] |
| --- | --- | --- |
| B1 | 4.6 |  |
| B2 |  | 248 |
